# Data from the supplement of paper PMC5998384.
# Columns and labels:
# [1] = test system: HeLa Kyoto; test: melting temperature (median over replicates), in situ; higher = more thermally stable
# [2] = test system: HeLa Kyoto; test: thermal stability score vs G1/S (z-score of summed log2 fold changes over temperatures); higher = more thermally stable than in G1/S
# [3] = test system: HeLa Kyoto; test: solubility in G1/S (NP-40 vs SDS abundance) (log2 ratio); higher = more soluble; details: cell cycle stage: G1/S
# [4] = test system: HeLa Kyoto; test: solubility change mitosis vs G1/S (difference of NP-40 vs SDS log2 ratios) (log2 ratio difference); higher = more soluble in mitosis
# [5] = cell cycle stage: early G1 (4.5 h after nocodazole release)
# 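Wherever melting temperature (median over replicates), in situ is given: HeLa Kyoto cells synchronized by double thymidine or nocodazole block, proteins quantified by TMT10plex mass spectrometry, three independent biological replicates.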
# 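Wherever solubility change mitosis vs G1/S (difference of NP-40 vs SDS log2 ratios) is given: synchronized HeLa Kyoto cells (double thymidine block for G1/S, nocodazole release for mitosis), protein amounts in NP-40 versus SDS lysates quantified by mass spectrometry, three biological replicates.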
# 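Wherever solubility in G1/S (NP-40 vs SDS abundance) is given: HeLa Kyoto cells arrested at G1/S by double thymidine block, proteins quantified by TMT10plex mass spectrometry in mild NP-40 versus SDS extracts, three biological replicates.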
# 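Wherever thermal stability score vs G1/S (z-score of summed log2 fold changes over temperatures) is given: synchronized HeLa Kyoto cells, proteins quantified by TMT10plex mass spectrometry, three biological replicates, mitosis taken 0.5 h after nocodazole release, G1/S directly after double thymidine block.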
Sequence,melting temperature ([1]; cell cycle stage: G1/S) [°C],melting temperature ([1]; cell cycle stage: mitosis) [°C],"thermal stability score [2, 5]",thermal stability score ([2]; cell cycle stage: mitosis),solubility in G1/S (log2) [3],solubility change mitosis (log2) [4]
MKKKTVCTLNMGDKKYEDMEGEENGDNTISTGLLYSEADRCPICLNCLLEKEVGFPESCNHVFCMTCILKWAETLASCPIDRKPFQAVFKFSALEGYVKVQVKKQLRETKDKKNENSFEKQVSCHENSKSCIRRKAIVREDLLSAKVCDLKWIHRNSLYSETGGKKNAAIKINKPQRSNWSTNQCFRNFFSNMFSSVSHSGESSFTYRAYCTEFIEASEISALIRQKRHELELSWFPDTLPGIGRIGFIPWNVETEVLPLISSVLPRTIFPTSTISFEHFGTSCKGYALAHTQEGEEKKQTSGTSNTRGSRRKPAMTTPTRRSTRNTRAETASQSQRSPISDNSGCDAPGNSNPSLSVPSSAESEKQTRQAPKRKSVRRGRKPPLLKKKLRSSVAAPEKSSSNDSVDEETAESDTSPVLEKEHQPDVDSSNICTVQTHVENQSANCLKSCNEQIEESEKHTANYDTEERVGSSSSESCAQDLPVLVGEEGEVKKLENTGIEANVLCLESEISENILEKGGDPLEKQDQISGLSQSEVKTDVCTVHLPNDFPTCLTSESKVYQPVSCPLSDLSENVESVVNEEKITESSLVEITEHKDFTLKTEELIESPKLESSEGEIIQTVDRQSVKSPEVQLLGHVETEDVEIIATCDTFGNEDFNNIQDSENNLLKNNLLNTKLEKSLEEKNESLTEHPRSTELPKTHIEQIQKHFSEDNNEMIPMECDSFCSDQNESEVEPSVNADLKQMNENSVTHCSENNMPSSDLADEKVETVSQPSESPKDTIDKTKKPRTRRSRFHSPSTTWSPNKDTPQEKKRPQSPSPRRETGKESRKSQSPSPKNESARGRKKSRSQSPKKDIARERRQSQSRSPKRDTTRESRRSESLSPRRETSRENKRSQPRVKDSSPGEKSRSQSRERESDRDGQRRERERRTRKWSRSRSHSRSPSRCRTKSKSSSFGRIDRDSYSPRWKGRWANDGWRCPRGNDRYRKNDPEKQNENTRKEKNDIHLDADDPNSADKHRNDCPNWITEKINSGPDPRTRNPEKLKESHWEENRNENSGNSWNKNFGSGWVSNRGRGRGNRGRGTYRSSFAYKDQNENRWQNRKPLSGNSNSSGSESFKFVEQQSYKRKSEQEFSFDTPADRSGWTSASSWAVRKTLPADVQNYYSRRGRNSSGPQSGWMKQEEETSGQDSSLKDQTNQQVDGSQLPINMMQPQMNVMQQQMNAQHQPMNIFPYPVGVHAPLMNIQRNPFNIHPQLPLHLHTGVPLMQVATPTSVSQGLPPPPPPPPPSQQVNYIASQPDGKQLQGIPSSSHVSNNMSTPVLPAPTAAPGNTGMVQGPSSGNTSSSSHSKASNAAVKLAESKVSVAVEASADSSKTDKKLQIQEKAAQEVKLAIKPFYQNKDITKEEYKEIVRKAVDKVCHSKSGEVNSTKVANLVKAYVDKYKYSRKGSQKKTLEEPVSTEKNIG [SCAF11],52.9,53.5,-1.41,2.84,-0.87,0.664
MKKVRLKELESRLQQVDGFEKPKLLLEQYPTRPHIAACMLYTIHNTYDDIENKVVADLGCGCGVLSIGTAMLGAGLCVGFDIDEDALEIFNRNAEEFELTNIDMVQCDVCLLSNRMSKSFDTVIMNPPFGTKNNKGTDMAFLKTALEMARTAVYSLHKSSTREHVQKKAAEWKIKIDIIAELRYDLPASYKFHKKKSVDIEVDLIRFSF [METTL5],58.9,63.4,-0.685,-0.982,-0.0292,-0.277
MKLGRAVLGLLLLAPSVVQAVEPISLGLALAGVLTGYIYPRLYCLFAECCGQKRSLSREALQKDLDDNLFGQHLAKKIILNAVFGFINNPKPKKPLTLSLHGWTGTGKNFVSKIIAENIYEGGLNSDYVHLFVATLHFPHASNITLYKDQLQLWIRGNVSACARSIFIFDEMDKMHAGLIDAIKPFLDYYDLVDGVSYQKAMFIFLSNAGAERITDVALDFWRSGKQREDIKLKDIEHALSVSVFNNKNSGFWHSSLIDRNLIDYFVPFLPLEYKHLKMCIRVEMQSRGYEIDEDIVSRVAEEMTFFPKEERVFSDKGCKTVFTKLDYYYDD [TOR1A],53.7,53.5,3.37,4.06,0.000474,-0.0946
MKLKLNVLTIILLPVHLLITIYSALIFIPWYFLTNAKKKNAMAKRIKAKPTSDKPGSPYRSVTHFDSLAVIDIPGADTLDKLFDHAVSKFGKKDSLGTREILSEENEMQPNGKVFKKLILGNYKWMNYLEVNRRVNNFGSGLTALGLKPKNTIAIFCETRAEWMIAAQTCFKYNFPLVTLYATLGKEAVVHGLNESEASYLITSVELLESKLKTALLDISCVKHIIYVDNKAINKAEYPEGFEIHSMQSVEELGSNPENLGIPPSRPTPSDMAIVMYTSGSTGRPKGVMMHHSNLIAGMTGQCERIPGLGPKDTYIGYLPLAHVLELTAEISCFTYGCRIGYSSPLTLSDQSSKIKKGSKGDCTVLKPTLMAAVPEIMDRIYKNVMSKVQEMNYIQKTLFKIGYDYKLEQIKKGYDAPLCNLLLFKKVKALLGGNVRMMLSGGAPLSPQTHRFMNVCFCCPIGQGYGLTESCGAGTVTEVTDYTTGRVGAPLICCEIKLKDWQEGGYTINDKPNPRGEIVIGGQNISMGYFKNEEKTAEDYSVDENGQRWFCTGDIGEFHPDGCLQIIDRKKDLVKLQAGEYVSLGKVEAALKNCPLIDNICAFAKSDQSYVISFVVPNQKRLTLLAQQKGVEGTWVDICNNPAMEAEILKEIREAANAMKLERFEIPIKVRLSPEPWTPETGLVTDAFKLKRKELRNHYLKDIERMYGGK [ACSL4],48.8,48.7,1.35,2.2,-0.0428,-0.157
MKLLLLHPAFQSCLLLTLLGLWRTTPEAHASSLGAPAISAASFLQDLIHRYGEGDSLTLQQLKALLNHLDVGVGRGNVTQHVQGHRNLSTCFSSGDLFTAHNFSEQSRIGSSELQEFCPTILQQLDSRACTSENQENEENEQTEEGRPSAVEVWGYGLLCVTVISLCSLLGASVVPFMKKTFYKRLLLYFIALAIGTLYSNALFQLIPEAFGFNPLEDYYVSKSAVVFGGFYLFFFTEKILKILLKQKNEHHHGHSHYASESLPSKKDQEEGVMEKLQNGDLDHMIPQHCSSELDGKAPMVDEKVIVGSLSVQDLQASQSACYWLKGVRYSDIGTLAWMITLSDGLHNFIDGLAIGASFTVSVFQGISTSVAILCEEFPHELGDFVILLNAGMSIQQALFFNFLSACCCYLGLAFGILAGSHFSANWIFALAGGMFLYISLADMFPEMNEVCQEDERKGSILIPFIIQNLGLLTGFTIMVVLTMYSGQIQIG [SLC39A14],55.3,59,1.32,2.81,-0.0657,-0.241
MKLPARVFFTLGSRLPCGLAPRRFFSYGTKILYQNTEALQSKFFSPLQKAMLPPNSFQGKVAFITGGGTGLGKGMTTLLSSLGAQCVIASRKMDVLKATAEQISSQTGNKVHAIQCDVRDPDMVQNTVSELIKVAGHPNIVINNAAGNFISPTERLSPNAWKTITDIVLNGTAFVTLEIGKQLIKAQKGAAFLSITTIYAETGSGFVVPSASAKAGVEAMSKSLAAEWGKYGMRFNVIQPGPIKTKGAFSRLDPTGTFEKEMIGRIPCGRLGTVEELANLAAFLCSDYASWINGAVIKFDGGEEVLISGEFNDLRKVTKEQWDTIEELIRKTKGS [DECR1],55.7,55.5,0.81,-1.85,0.0868,0.263
MKPKLMYQELKVPAEEPANELPMNEIEAWKAAEKKARWVLLVLILAVVGFGALMTQLFLWEYGDLHLFGPNQRPAPCYDPCEAVLVESIPEGLDFPNASTGNPSTSQAWLGLLAGAHSSLDIASFYWTLTNNDTHTQEPSAQQGEEVLRQLQTLAPKGVNVRIAVSKPSGPQPQADLQALLQSGAQVRMVDMQKLTHGVLHTKFWVVDQTHFYLGSANMDWRSLTQVKELGVVMYNCSCLARDLTKIFEAYWFLGQAGSSIPSTWPRFYDTRYNQETPMEICLNGTPALAYLASAPPPLCPSGRTPDLKALLNVVDNARSFIYVAVMNYLPTLEFSHPHRFWPAIDDGLRRATYERGVKVRLLISCWGHSEPSMRAFLLSLAALRDNHTHSDIQVKLFVVPADEAQARIPYARVNHNKYMVTERATYIGTSNWSGNYFTETAGTSLLVTQNGRGGLRSQLEAIFLRDWDSPYSHDLDTSADSVGNACRLL [PLD3],55.7,55.3,-2.87,-4.26,0.309,-0.0637
MKPLVVFVLGGPGAGKGTQCARIVEKYGYTHLSAGELLRDERKNPDSQYGELIEKYIKEGKIVPVEITISLLKREMDQTMAANAQKNKFLIDGFPRNQDNLQGWNKTMDGKADVSFVLFFDCNNEICIERCLERGKSSGRSDDNRESLEKRIQTYLQSTKPIIDLYEEMGKVKKIDASKSVDEVFDEVVQIFDKEG [CMPK1],51.1,52.2,1.52,0.905,0.272,0.065
MKRPKLKKASKRMTCHKRYKIQKKVREHHRKLRKEAKKRGHKKPRKDPGVPNSAPFKEALLREAELRKQRLEELKQQQKLDRQKELEKKRKLETNPDIKPSNVEPMEKEFGLCKTENKAKSGKQNSKKLYCQELKKVIEASDVVLEVLDARDPLGCRCPQVEEAIVQSGQKKLVLILNKSDLVPKENLESWLNYLKKELPTVVFRASTKPKDKGKITKRVKAKKNAAPFRSEVCFGKEGLWKLLGGFQETCSKAIRVGVIGFPNVGKSSIINSLKQEQMCNVGVSMGLTRSMQVVPLDKQITIIDSPSFIVSPLNSSSALALRSPASIEVVKPMEAASAILSQADARQVVLKYTVPGYRNSLEFFTVLAQRRGMHQKGGIPNVEGAAKLLWSEWTGASLAYYCHPPTSWTPPPYFNESIVVDMKSGFNLEELEKNNAQSIRAIKGPHLANSILFQSSGLTNGIIEEKDIHEELPKRKERKQEEREDDKDSDQETVDEEVDENSSGMFAAEETGEALSEETTAGEQSTRSFILDKIIEEDDAYDFSTDYV [GNL3],45.3,50.2,5.07,8.85,-1.72,0.867
MKSLKAKFRKSDTNEWNKNDDRLLQAVENGDAEKVASLLGKKGASATKHDSEGKTAFHLAAAKGHVECLRVMITHGVDVTAQDTTGHSALHLAAKNSHHECIRKLLQSKCPAESVDSSGKTALHYAAAQGCLQAVQILCEHKSPINLKDLDGNIPLLLAVQNGHSEICHFLLDHGADVNSRNKSGRTALMLACEIGSSNAVEALIKKGADLNLVDSLGYNALHYSKLSENAGIQSLLLSKISQDADLKTPTKPKQHDQVSKISSERSGTPKKRKAPPPPISPTQLSDVSSPRSITSTPLSGKESVFFAEPPFKAEISSIRENKDRLSDSTTGADSLLDISSEADQQDLLSLLQAKVASLTLHNKELQDKLQAKSPKEAEADLSFDSYHSTQTDLGPSLGKPGETSPPDSKSSPSVLIHSLGKSTTDNDVRIQQLQEILQDLQKRLESSEAERKQLQVELQSRRAELVCLNNTEISENSSDLSQKLKETQSKYEEAMKEVLSVQKQMKLGLVSPESMDNYSHFHELRVTEEEINVLKQDLQNALEESERNKEKVRELEEKLVEREKGTVIKPPVEEYEEMKSSYCSVIENMNKEKAFLFEKYQEAQEEIMKLKDTLKSQMTQEASDEAEDMKEAMNRMIDELNKQVSELSQLYKEAQAELEDYRKRKSLEDVTAEYIHKAEHEKLMQLTNVSRAKAEDALSEMKSQYSKVLNELTQLKQLVDAQKENSVSITEHLQVITTLRTAAKEMEEKISNLKEHLASKEVEVAKLEKQLLEEKAAMTDAMVPRSSYEKLQSSLESEVSVLASKLKESVKEKEKVHSEVVQIRSEVSQVKREKENIQTLLKSKEQEVNELLQKFQQAQEELAEMKRYAESSSKLEEDKDKKINEMSKEVTKLKEALNSLSQLSYSTSSSKRQSQQLEALQQQVKQLQNQLAECKKQHQEVISVYRMHLLYAVQGQMDEDVQKVLKQILTMCKNQSQKK [RAI14],49.7,50,0.622,0.688,-0.263,0.267
